# Data from article PMC11519604, “TOX2 nuclear-cytosol translocation is linked to leukemogenesis of acute T-cell leukemia by repressing TIM3 transcription” (Cell Death and Differentiation, 2024).
# B1: TOX-Flag (full-length TOX) (natural protein, UniProt O94900 1-526, looked up)
# chain: MDVRFYPPPAQPAAAPDAPCLGPSPCLDPYYCNKFDGENMYMSMTEPSQDYVPASQSYPGPSLESEDFNIPPITPPSLPDHSLVHLNEVESGYHSLCHPMNHNGLLPFHPQNMDLPEITVSNMLGQDGTLLSNSISVMPDIRNPEGTQYSSHPQMAAMRPRGQPADIRQQPGMMPHGQLTTINQSQLSAQLGLNMGGSNVPHNSPSPPGSKSATPSPSSSVHEDEGDDTSKINGGEKRPASDMGKKPKTPKKKKKKDPNEPQKPVSAYALFFRDTQAAIKGQNPNATFGEVSKIVASMWDGLGEEQKQVYKKKTEAAKKEYLKQLAAYRASLVSKSYSEPVDVKTSQPPQLINSKPSVFHGPSQAHSALYLSSHYHQQPGMNPHLTAMHPSLPRNIAPKPNNQMPVTVSIANMAVSPPPPLQISPPLHQHLNMQQHQPLTMQQPLGNQLPMQVQSALHSPTMQQGFTLQPDYQTIINPTSTAAQVVTQAMEYVRSGCRNPPPQPVDWNNDYCSSGGMQRDKALYLT
# notes: TOX, full length (526 residues by the printed limits of TOX(C) 257-526), in pCDH vector; Both are written as this one molecule; source: HEK293T, transfected, in lysate; not shown: Flag, C-terminal, kept
# Molecular target: the molecule itself
# Assay: not stated; HEK293T cells with forced expression or knockdown of TOX and TOX2; bands told by apparent size (Supplementary Fig. 3B)
protein,measurement,value
B1,stoichiometry N,2
